Results from patent US20050063948A1 (published 2005).

Molecular target: T1, αvβ3 integrin on the surface of M21 human melanoma cells (human, UniProt P06756 31-1048; P05106 27-788)
T1 construct: whole, on cells; also called αvβ3 integrin heterodimer
Test: immunofluorescence on M21 cells, detected with anti-mouse IL-12 p40 antibody and FITC secondary
Source text: The specificity of mrIL-12vp binding to αᵥβ₃ integrin-positive cell lines was subsequently determined. M21, a human melanoma line which expresses αᵥβ₃ integrin on its surface (Felding-Habermann, et al. (1992) J. Clin. Invest. 89:2018-2022), was used as a αᵥβ₃ integrin-positive cell line for this analysis. Prior to the studies with mrIL-12vp, the expression of αᵥβ₃ integrin was confirmed based on intense labeling of M21 cells with the anti-αᵥβ₃ integrin antibody LM609 using flow cytometry. […] Immunofluorescence evaluation of cells grown on chamber slides confirmed specific binding of mrIL-12vp, but not mrIL-12 to M21 cells. There was no binding of mrIL-12 or mrIL-12vp to Saos-2 cells.
Immunofluorescence labeling was performed in accordance with standard methods (Teng, et al. (2002) Am. J. Physiol. Renal Physiol. 282:F1075-F1083). M21 or Saos-2 cells were incubated with 5 μg of either mrIL-12 or mrIL-12vp for 30 minutes at 37 C in a 5% CO₂ atmosphere. The cells were rinsed with PBS, and then fixed with freshly prepared 4% paraformaldehyde for 10 minutes at room temperature. Detection of mrIL-12 or mrIL-12vp binding to cells used an anti-mouse IL-12 p40 antibody, followed by three washes with PBS and incubation with FITC-conjugated goat anti-mouse IgG (1:200) for 1 hour in the dark. As a control, anti-mouse IL-12 p40 was omitted from the labeling process.

T1 sequence (P06756 31-1048, chain 1 of 2): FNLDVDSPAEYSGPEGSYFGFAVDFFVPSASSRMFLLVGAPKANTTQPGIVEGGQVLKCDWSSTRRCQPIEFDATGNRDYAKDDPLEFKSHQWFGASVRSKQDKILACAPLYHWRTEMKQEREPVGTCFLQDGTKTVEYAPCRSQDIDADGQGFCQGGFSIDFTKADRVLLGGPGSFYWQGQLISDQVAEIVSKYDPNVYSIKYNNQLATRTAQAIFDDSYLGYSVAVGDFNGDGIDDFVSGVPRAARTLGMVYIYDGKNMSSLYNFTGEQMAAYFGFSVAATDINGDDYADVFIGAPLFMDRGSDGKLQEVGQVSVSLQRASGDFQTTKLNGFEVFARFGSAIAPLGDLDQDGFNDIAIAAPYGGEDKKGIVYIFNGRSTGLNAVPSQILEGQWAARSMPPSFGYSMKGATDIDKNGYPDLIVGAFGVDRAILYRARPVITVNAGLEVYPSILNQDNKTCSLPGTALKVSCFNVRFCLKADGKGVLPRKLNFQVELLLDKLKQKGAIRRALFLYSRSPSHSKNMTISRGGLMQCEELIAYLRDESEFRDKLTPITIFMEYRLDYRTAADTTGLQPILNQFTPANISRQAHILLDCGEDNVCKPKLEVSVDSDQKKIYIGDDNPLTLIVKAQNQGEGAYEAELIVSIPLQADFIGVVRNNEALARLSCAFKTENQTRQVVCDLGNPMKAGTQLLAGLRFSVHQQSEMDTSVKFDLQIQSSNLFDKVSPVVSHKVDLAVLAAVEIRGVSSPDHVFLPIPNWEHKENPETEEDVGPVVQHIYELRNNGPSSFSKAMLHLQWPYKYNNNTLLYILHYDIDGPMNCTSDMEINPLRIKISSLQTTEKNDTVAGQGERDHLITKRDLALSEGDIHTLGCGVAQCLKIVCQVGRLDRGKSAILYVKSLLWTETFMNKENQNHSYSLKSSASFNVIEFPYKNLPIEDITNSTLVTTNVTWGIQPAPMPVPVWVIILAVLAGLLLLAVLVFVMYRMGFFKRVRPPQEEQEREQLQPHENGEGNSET
T1 sequence (P05106 27-788, chain 2 of 2): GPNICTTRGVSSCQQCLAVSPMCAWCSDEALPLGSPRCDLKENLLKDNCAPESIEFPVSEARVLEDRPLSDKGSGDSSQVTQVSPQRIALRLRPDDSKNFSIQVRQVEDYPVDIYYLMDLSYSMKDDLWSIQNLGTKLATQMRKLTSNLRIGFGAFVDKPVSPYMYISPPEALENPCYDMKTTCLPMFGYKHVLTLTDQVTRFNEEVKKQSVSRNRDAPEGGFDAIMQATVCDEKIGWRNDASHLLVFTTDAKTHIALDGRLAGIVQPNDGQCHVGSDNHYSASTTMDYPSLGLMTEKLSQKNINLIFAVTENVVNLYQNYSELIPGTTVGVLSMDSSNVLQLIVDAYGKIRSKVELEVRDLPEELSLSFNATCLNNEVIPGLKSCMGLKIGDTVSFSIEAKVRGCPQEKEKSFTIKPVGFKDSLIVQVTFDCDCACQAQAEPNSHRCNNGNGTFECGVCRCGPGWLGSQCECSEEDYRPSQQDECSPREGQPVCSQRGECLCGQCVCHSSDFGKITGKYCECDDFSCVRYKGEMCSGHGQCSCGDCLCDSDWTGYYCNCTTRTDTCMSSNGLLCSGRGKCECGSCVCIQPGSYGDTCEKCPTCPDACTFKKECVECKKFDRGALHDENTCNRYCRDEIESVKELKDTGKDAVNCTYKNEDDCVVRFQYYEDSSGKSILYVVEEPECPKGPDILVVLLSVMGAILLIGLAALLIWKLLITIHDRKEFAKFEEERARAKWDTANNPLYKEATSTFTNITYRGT

B1: murine recombinant IL-12 (mrIL-12) (ligand, mouse)
chain 1: RVIPVSGPARCLSQSRNLLKTTDDMVKTAREKLKHYSCTAEDIDHEDITRDQTSTLKTCLPLELHKNESCLATRETSSTTRGSCLPPQKTSLMMTLCLGSIYEDLKMYQTEFQAINAALQNHNHQQIILDKGMLVAIDELMQSLNHNGETLRQKPPVGEADPYRVKMKLCILLHAFSTRVVTINRVMGYLSSA
chain 2: MWELEKDVYVVEVDWTPDAPGETVNLTCDTPEEDDITWTSDQRHGVIGSGKTLTITVKEFLDAGQYTCHKGGETLSHSHLLLHKKENGIWSTEILKNFKNKTFLKCEAPNYSGRFTCSWLVQRNMDLKFNIKSSSSSPDSRAVTCGMASLSAEKVTLDQRDYEKYSVSCQEDVTCPTAEETLPIELALEARQQNKYENYSTSFFIRDIIKPDPPKNLQMKPLKNSQVEVSWEYPDSWSTPHSYFSLKFFVRIQRKKEKMKETEEGCNQKGAFLVEKTSTEVQCKGGNVCVQAQDRYYNSSCSKWACVPCRVRS
notes: Bought
  binding result: no binding (tested: 5 µg)
